From US11833164B2, “Methods of treating Fabry disease in patients having a mutation in the GLA gene” (Amicus Therapeutics, Inc., priority 2019, dated 2023)

B1: G150V (protein)
chain: MQLRNPELHLGCALALRFLALVSWDIPGARALDNGLARTPTMGWLHWERFMCNLDCQEEPDSCISEKLFMEMAELMVSEGWKDAGYEYLCIDDCWMAPQRDSEGRLQADPQRFPHGIRQLANYVHSKGLKLGIYADVGNKTCAGFPGSFVYYDIDAQTFADWGVDLLKFDGCYCDSLENLADGYKHMSLALNRTGRSIVYSCEWPLYMWPFQKPNYTEIRQYCNHWRNFADIDDSWKSIKSILDWTSFNQERIVDVAGPGGWNDPDMLVIGNFGLSWNQQVTQMALWAIMAAPLFMSNDLRHISPQAKALLQDKDVIAINQDPLGKQGYQLRQGDNFEVWERPLSGLAWAVAMINRQEIGGPRSYTIAVASLGKGVACNPACFITQLLPVKRKLGFYEWTSRLRSHINPTGTVLLQLENTMQMSLKDLL
B2: Y151C (protein)
chain: MQLRNPELHLGCALALRFLALVSWDIPGARALDNGLARTPTMGWLHWERFMCNLDCQEEPDSCISEKLFMEMAELMVSEGWKDAGYEYLCIDDCWMAPQRDSEGRLQADPQRFPHGIRQLANYVHSKGLKLGIYADVGNKTCAGFPGSFGCYDIDAQTFADWGVDLLKFDGCYCDSLENLADGYKHMSLALNRTGRSIVYSCEWPLYMWPFQKPNYTEIRQYCNHWRNFADIDDSWKSIKSILDWTSFNQERIVDVAGPGGWNDPDMLVIGNFGLSWNQQVTQMALWAIMAAPLFMSNDLRHISPQAKALLQDKDVIAINQDPLGKQGYQLRQGDNFEVWERPLSGLAWAVAMINRQEIGGPRSYTIAVASLGKGVACNPACFITQLLPVKRKLGFYEWTSRLRSHINPTGTVLLQLENTMQMSLKDLL
B3: Y151D (protein)
chain: MQLRNPELHLGCALALRFLALVSWDIPGARALDNGLARTPTMGWLHWERFMCNLDCQEEPDSCISEKLFMEMAELMVSEGWKDAGYEYLCIDDCWMAPQRDSEGRLQADPQRFPHGIRQLANYVHSKGLKLGIYADVGNKTCAGFPGSFGDYDIDAQTFADWGVDLLKFDGCYCDSLENLADGYKHMSLALNRTGRSIVYSCEWPLYMWPFQKPNYTEIRQYCNHWRNFADIDDSWKSIKSILDWTSFNQERIVDVAGPGGWNDPDMLVIGNFGLSWNQQVTQMALWAIMAAPLFMSNDLRHISPQAKALLQDKDVIAINQDPLGKQGYQLRQGDNFEVWERPLSGLAWAVAMINRQEIGGPRSYTIAVASLGKGVACNPACFITQLLPVKRKLGFYEWTSRLRSHINPTGTVLLQLENTMQMSLKDLL
B4: D153A (protein)
chain: MQLRNPELHLGCALALRFLALVSWDIPGARALDNGLARTPTMGWLHWERFMCNLDCQEEPDSCISEKLFMEMAELMVSEGWKDAGYEYLCIDDCWMAPQRDSEGRLQADPQRFPHGIRQLANYVHSKGLKLGIYADVGNKTCAGFPGSFGYYAIDAQTFADWGVDLLKFDGCYCDSLENLADGYKHMSLALNRTGRSIVYSCEWPLYMWPFQKPNYTEIRQYCNHWRNFADIDDSWKSIKSILDWTSFNQERIVDVAGPGGWNDPDMLVIGNFGLSWNQQVTQMALWAIMAAPLFMSNDLRHISPQAKALLQDKDVIAINQDPLGKQGYQLRQGDNFEVWERPLSGLAWAVAMINRQEIGGPRSYTIAVASLGKGVACNPACFITQLLPVKRKLGFYEWTSRLRSHINPTGTVLLQLENTMQMSLKDLL
B5: D153N (protein)
chain: MQLRNPELHLGCALALRFLALVSWDIPGARALDNGLARTPTMGWLHWERFMCNLDCQEEPDSCISEKLFMEMAELMVSEGWKDAGYEYLCIDDCWMAPQRDSEGRLQADPQRFPHGIRQLANYVHSKGLKLGIYADVGNKTCAGFPGSFGYYNIDAQTFADWGVDLLKFDGCYCDSLENLADGYKHMSLALNRTGRSIVYSCEWPLYMWPFQKPNYTEIRQYCNHWRNFADIDDSWKSIKSILDWTSFNQERIVDVAGPGGWNDPDMLVIGNFGLSWNQQVTQMALWAIMAAPLFMSNDLRHISPQAKALLQDKDVIAINQDPLGKQGYQLRQGDNFEVWERPLSGLAWAVAMINRQEIGGPRSYTIAVASLGKGVACNPACFITQLLPVKRKLGFYEWTSRLRSHINPTGTVLLQLENTMQMSLKDLL
B6: Y152F (protein)
chain: MQLRNPELHLGCALALRFLALVSWDIPGARALDNGLARTPTMGWLHWERFMCNLDCQEEPDSCISEKLFMEMAELMVSEGWKDAGYEYLCIDDCWMAPQRDSEGRLQADPQRFPHGIRQLANYVHSKGLKLGIYADVGNKTCAGFPGSFGYFDIDAQTFADWGVDLLKFDGCYCDSLENLADGYKHMSLALNRTGRSIVYSCEWPLYMWPFQKPNYTEIRQYCNHWRNFADIDDSWKSIKSILDWTSFNQERIVDVAGPGGWNDPDMLVIGNFGLSWNQQVTQMALWAIMAAPLFMSNDLRHISPQAKALLQDKDVIAINQDPLGKQGYQLRQGDNFEVWERPLSGLAWAVAMINRQEIGGPRSYTIAVASLGKGVACNPACFITQLLPVKRKLGFYEWTSRLRSHINPTGTVLLQLENTMQMSLKDLL
B7: Y151S (protein)
chain: MQLRNPELHLGCALALRFLALVSWDIPGARALDNGLARTPTMGWLHWERFMCNLDCQEEPDSCISEKLFMEMAELMVSEGWKDAGYEYLCIDDCWMAPQRDSEGRLQADPQRFPHGIRQLANYVHSKGLKLGIYADVGNKTCAGFPGSFGSYDIDAQTFADWGVDLLKFDGCYCDSLENLADGYKHMSLALNRTGRSIVYSCEWPLYMWPFQKPNYTEIRQYCNHWRNFADIDDSWKSIKSILDWTSFNQERIVDVAGPGGWNDPDMLVIGNFGLSWNQQVTQMALWAIMAAPLFMSNDLRHISPQAKALLQDKDVIAINQDPLGKQGYQLRQGDNFEVWERPLSGLAWAVAMINRQEIGGPRSYTIAVASLGKGVACNPACFITQLLPVKRKLGFYEWTSRLRSHINPTGTVLLQLENTMQMSLKDLL
B8: D153H (protein)
chain: MQLRNPELHLGCALALRFLALVSWDIPGARALDNGLARTPTMGWLHWERFMCNLDCQEEPDSCISEKLFMEMAELMVSEGWKDAGYEYLCIDDCWMAPQRDSEGRLQADPQRFPHGIRQLANYVHSKGLKLGIYADVGNKTCAGFPGSFGYYHIDAQTFADWGVDLLKFDGCYCDSLENLADGYKHMSLALNRTGRSIVYSCEWPLYMWPFQKPNYTEIRQYCNHWRNFADIDDSWKSIKSILDWTSFNQERIVDVAGPGGWNDPDMLVIGNFGLSWNQQVTQMALWAIMAAPLFMSNDLRHISPQAKALLQDKDVIAINQDPLGKQGYQLRQGDNFEVWERPLSGLAWAVAMINRQEIGGPRSYTIAVASLGKGVACNPACFITQLLPVKRKLGFYEWTSRLRSHINPTGTVLLQLENTMQMSLKDLL
B9: Y152S (protein)
chain: MQLRNPELHLGCALALRFLALVSWDIPGARALDNGLARTPTMGWLHWERFMCNLDCQEEPDSCISEKLFMEMAELMVSEGWKDAGYEYLCIDDCWMAPQRDSEGRLQADPQRFPHGIRQLANYVHSKGLKLGIYADVGNKTCAGFPGSFGYSDIDAQTFADWGVDLLKFDGCYCDSLENLADGYKHMSLALNRTGRSIVYSCEWPLYMWPFQKPNYTEIRQYCNHWRNFADIDDSWKSIKSILDWTSFNQERIVDVAGPGGWNDPDMLVIGNFGLSWNQQVTQMALWAIMAAPLFMSNDLRHISPQAKALLQDKDVIAINQDPLGKQGYQLRQGDNFEVWERPLSGLAWAVAMINRQEIGGPRSYTIAVASLGKGVACNPACFITQLLPVKRKLGFYEWTSRLRSHINPTGTVLLQLENTMQMSLKDLL

System: mutant form of α-Gal A expressed in HEK-293 cells
Test: HEK assay (GLP HEK / Migalastat Amenability Assay): α-Gal A activity in lysates of transiently transfected HEK-293 cells incubated with or without 10 μM migalastat
Assay type: cell-based, human
Conditions: for Absolute increase (% WT): 10 μM migalastat versus baseline; for Relative increase: 10 μM migalastat α-Gal A activity relative to baseline; for 10 μM migalastat α-Gal A activity (% WT): 5 days; for 10 μM migalastat α-Gal A activity (% WT) / Baseline α-Gal A activity (% WT): percentage of baseline wild-type α-Gal A activity; for 10 μM migalastat α-Gal A activity (% WT) / Baseline α-Gal A activity (% WT) / Baseline α-Gal A activity / 10 μM migalastat α-Gal A activity: mean ± SEM; for Baseline α-Gal A activity (% WT): absence of migalastat; for Baseline α-Gal A activity / 10 μM migalastat α-Gal A activity: lysates of HEK-293 cells transfected with the mutant form; for Baseline α-Gal A activity: incubated 5 days in the absence of migalastat; for 10 μM migalastat α-Gal A activity: incubated 5 days with 10 μM migalastat
Outline: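 Activity reported as 4-MU released (nmol/mg/hr), mean±SEM, from lysates of transiently transfected HEK-293 cells expressing mutant α-Gal A, cultured with or without 10 μM migalastat.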

| Molecule | Absolute increase (% WT) | Relative increase | 10 μM migalastat α-Gal A activity (% WT) | Baseline α-Gal A activity (% WT) | Baseline α-Gal A activity [nmol/mg/h] | 10 μM migalastat α-Gal A activity [nmol/mg/h] |
| --- | --- | --- | --- | --- | --- | --- |
| B1 | 9.2 | 4.3 | 12.1 ± 0.7 | 2.9 ± 0.1 | 1080 ± 63 | 4639 ± 361 |
| B2 | 13.2 | 1.4 | 45.6 ± 2 | 32.4 ± 1.5 | 11271 ± 579 | 15859 ± 752 |
| B3 | 11.5 | 1.4 | 40.8 ± 2.2 | 29.3 ± 1.7 | 10673 ± 604 | 15196 ± 1025 |
| B4 | 21.6 | 1.4 | 81.6 ± 2.3 | 60.1 ± 2.4 | 22606 ± 1445 | 30854 ± 1997 |
| B5 | 24.1 | 1.3 | 89.7 ± 4.4 | 65.6 ± 2.8 | 29386 ± 1518 | 39338 ± 1551 |
| B6 | 11.4 | 1.3 | 56.8 ± 2.7 | 45.4 ± 2.6 | 18675 ± 907 | 23612 ± 1095 |
| B7 | 22.2 | 1.3 | 107 ± 4.9 | 84.8 ± 4.2 | 30047 ± 1943 | 37527 ± 2003 |
| B8 | 20.5 | 1.3 | 81 ± 2.1 | 60.5 ± 2.2 | 23578 ± 1741 | 31052 ± 1774 |
| B9 | 19.6 | 1.7 | 46.7 ± 2.6 | 27.1 ± 1.7 | 9917 ± 917 | 16642 ± 1218 |
